Measurements as given in IntAct's records for PubMed 21252943.

B1: E3 ubiquitin-protein ligase RNF4 (Rattus norvegicus (Rat)), O88846 (parent)
chain: MSTRNPQRKRRGGAVNSRQTQKRTRETTSTPEISLEAEPIELVETVGDEIVDLTCESLEPVVVDLTHNDSVVIVEERRRPRRNGRRLRQDHADSCVVSSDDEELSKDKDVYVTTHTPRSTKDEGTTGLRPSGTVSCPICMDGYSEIVQNGRLIVSTECGHVFCSQCLRDSLKNANTCPTCRKKINHKRYHPIYI

Variants of: B1
Settings: with sumo2_human SUMO2, P61956
Sequence of sumo2_human SUMO2, P61956 (P61956 whole entry): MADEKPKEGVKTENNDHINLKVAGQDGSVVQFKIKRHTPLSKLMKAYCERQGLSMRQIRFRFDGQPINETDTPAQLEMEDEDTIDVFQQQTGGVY

Effect of a mutation on the interaction, disrupting interaction:
MSTRNPQRKRRGGAVNSRQTQKRTRETTSTPEISLEAEPIELVETVGDEIVDLTCESLEPVVVDLTHNDSVVIAEERRRPRRNGRRLRQDHADSCVVSSDDEELSKDKDVYVTTHTPRSTKDEGTTGLRPSGTVSCPICMDGYSEIVQNGRLIVSTECGHVFCSQCLRDSLKNANTCPTCRKKINHKRYHPIYI
MSTRNPQRKRRGGAVNSRQTQKRTRETTSTPEISLEAEPIEAVETVGDEIVDLTCESLEPVVVDLTHNDSVVIVEERRRPRRNGRRLRQDHADSCVVSSDDEELSKDKDVYVTTHTPRSTKDEGTTGLRPSGTVSCPICMDGYSEIVQNGRLIVSTECGHVFCSQCLRDSLKNANTCPTCRKKINHKRYHPIYI
MSTRNPQRKRRGGAVNSRQTQKRTRETTSTPEISLEAEPIELVETVGDEIVDLTCESLEPVVVDLTHNDSAVIVEERRRPRRNGRRLRQDHADSCVVSSDDEELSKDKDVYVTTHTPRSTKDEGTTGLRPSGTVSCPICMDGYSEIVQNGRLIVSTECGHVFCSQCLRDSLKNANTCPTCRKKINHKRYHPIYI
MSTRNPQRKRRGGAVNSRQTQKRTRETTSTPEISLEAEPIELVETVGDEIVDLTCESLEPVVVDLTHNDSVAIVEERRRPRRNGRRLRQDHADSCVVSSDDEELSKDKDVYVTTHTPRSTKDEGTTGLRPSGTVSCPICMDGYSEIVQNGRLIVSTECGHVFCSQCLRDSLKNANTCPTCRKKINHKRYHPIYI
MSTRNPQRKRRGGAVNSRQTQKRTRETTSTPEISLEAEPIELVETVGDEAVDLTCESLEPVVVDLTHNDSVVIVEERRRPRRNGRRLRQDHADSCVVSSDDEELSKDKDVYVTTHTPRSTKDEGTTGLRPSGTVSCPICMDGYSEIVQNGRLIVSTECGHVFCSQCLRDSLKNANTCPTCRKKINHKRYHPIYI
MSTRNPQRKRRGGAVNSRQTQKRTRETTSTPEISLEAEPIELAETVGDEIVDLTCESLEPVVVDLTHNDSVVIVEERRRPRRNGRRLRQDHADSCVVSSDDEELSKDKDVYVTTHTPRSTKDEGTTGLRPSGTVSCPICMDGYSEIVQNGRLIVSTECGHVFCSQCLRDSLKNANTCPTCRKKINHKRYHPIYI
MSTRNPQRKRRGGAVNSRQTQKRTRETTSTPEISLEAEPIELVETVGDEIADLTCESLEPVVVDLTHNDSVVIVEERRRPRRNGRRLRQDHADSCVVSSDDEELSKDKDVYVTTHTPRSTKDEGTTGLRPSGTVSCPICMDGYSEIVQNGRLIVSTECGHVFCSQCLRDSLKNANTCPTCRKKINHKRYHPIYI
MSTRNPQRKRRGGAVNSRQTQKRTRETTSTPEISLEAEPIELVETVGDEIVDLTCESLEPVVVDLTHNDSVVAVEERRRPRRNGRRLRQDHADSCVVSSDDEELSKDKDVYVTTHTPRSTKDEGTTGLRPSGTVSCPICMDGYSEIVQNGRLIVSTECGHVFCSQCLRDSLKNANTCPTCRKKINHKRYHPIYI
MSTRNPQRKRRGGAVNSRQTQKRTRETTSTPEISLEAEPIELVETVGDEIVDATCESLEPVVVDLTHNDSVVIVEERRRPRRNGRRLRQDHADSCVVSSDDEELSKDKDVYVTTHTPRSTKDEGTTGLRPSGTVSCPICMDGYSEIVQNGRLIVSTECGHVFCSQCLRDSLKNANTCPTCRKKINHKRYHPIYI
MSTRNPQRKRRGGAVNSRQTQKRTRETTSTPEISLEAEPIELVETVGDEIVDLTCESLEPVVADLTHNDSVVIVEERRRPRRNGRRLRQDHADSCVVSSDDEELSKDKDVYVTTHTPRSTKDEGTTGLRPSGTVSCPICMDGYSEIVQNGRLIVSTECGHVFCSQCLRDSLKNANTCPTCRKKINHKRYHPIYI
MSTRNPQRKRRGGAVNSRQTQKRTRETTSTPEISLEAEPIELVETVGDEIVDLTCESLEPVAVDLTHNDSVVIVEERRRPRRNGRRLRQDHADSCVVSSDDEELSKDKDVYVTTHTPRSTKDEGTTGLRPSGTVSCPICMDGYSEIVQNGRLIVSTECGHVFCSQCLRDSLKNANTCPTCRKKINHKRYHPIYI
MSTRNPQRKRRGGAVNSRQTQKRTRETTSTPEISLEAEPIELVETVGDEIVDLTCESLEPAVVDLTHNDSVVIVEERRRPRRNGRRLRQDHADSCVVSSDDEELSKDKDVYVTTHTPRSTKDEGTTGLRPSGTVSCPICMDGYSEIVQNGRLIVSTECGHVFCSQCLRDSLKNANTCPTCRKKINHKRYHPIYI
MSTRNPQRKRRGGAVNSRQTQKRTRETTSTPEISLEAEPAELVETVGDEIVDLTCESLEPVVVDLTHNDSVVIVEERRRPRRNGRRLRQDHADSCVVSSDDEELSKDKDVYVTTHTPRSTKDEGTTGLRPSGTVSCPICMDGYSEIVQNGRLIVSTECGHVFCSQCLRDSLKNANTCPTCRKKINHKRYHPIYI
